This test relates to HCV pseudovirion entry. As to the kind of experiment: HCV pseudovirion entry into target cells. The class given is cell-based. The following applies: E1/E2-mediated entry of pseudovirions. The text has this: The procedure of Bartosch et al. (2003b) was used to generate retroviral particles pseudotyped with HCV envelope glycoproteins (HCV pseudovirus particles; HCVpp). Briefly, in order to generate HCV pseudovirions, 293T cells were cotransfected with HIV-1-based (pLenti6, Invitrogen) or MMLV-based (pFB, Stratagene, La Jolla, Calif.) retroviral vectors and vectors expressing structural genes, including Gag, Pol and envelope glycoproteins (see FIG. 2). In addition, the HIV-1-based vector was cotransfected with a Rev-encoding plasmid to enable transport of genomic RNAs from the nucleus to the cytoplasm.
Antibodies against E2 as well as HCV+ sera inhibited E1/E2-mediated entry.

The text below walks through data of US20060292151A1, “L-SIGN polymorphisms and methods involving use of same” (priority 2004, published 2006).

B1: soluble CD81 ECL2 peptide: soluble CD81 ECL2 peptide (peptide)
peptide: FVNKDQIAKDVKQFYDQALQQAVVDDDANNAKAVVKTFHETLDCCGSSTLTALTTSVLKNNLCPSGSNIISNLFKEDCHQKIDDLFSGK
For B1, the “inhibition of HCV pseudovirion entry” value is on record as “inhibited HCV pseudovirion entry”.
